The target of experiment [1] is human TNF alpha (Miltenyi, from yeast, Catalog no. 130-094) (human) (UniProt P01375). The experiment in a line: SPR, Biacore 8K.
For experiment [2] the target is unchanged. Briefly: SPR, Biacore 8K (column head prints nM; koff/kon gives this number in M).
Experiment [3] concerns the target Llama Anti-human LC-kappa VHH Single Domain Antibody [Biotin] (CAT #: NABG-118). The experiment in a line: BLI, biotinylated VHH ligand on streptavidin biosensor.

Sequence of UniProt P01375 (P01375 77-233 limits assumed): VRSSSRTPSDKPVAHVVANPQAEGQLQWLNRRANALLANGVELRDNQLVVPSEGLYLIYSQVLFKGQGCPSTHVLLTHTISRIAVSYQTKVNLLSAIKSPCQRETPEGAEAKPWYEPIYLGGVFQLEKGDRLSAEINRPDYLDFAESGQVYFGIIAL

In experiment [1], “Adalimumab variant with His198Arg light chains (L234A/L235A Fc) (antibody)” returned a % KD to wildtype of 104%, a % koff to wildtype of 92.7%, a % kon to wildtype of 92.7% and a koff of 0.00021 s⁻¹. In experiment [1], this substance showed a kon of 3.8e+06 M⁻¹ s⁻¹. Moreover, the Kd in experiment [2] was determined as 0.0553 nM. The substance further returned a % Response BLI of construct in comparison to wildtype (=% Binding to Kappa-ligand) in experiment [3] of 7.87%.

As for “Adalimumab variant with Thr109Arg + Ser202Arg light chains (L234A/L235A Fc) (antibody)”, in experiment [1], the % KD to wildtype was found to be 110%, the % koff to wildtype came to 90.5%, the % kon to wildtype stood at 90.5% and the koff was found to be 0.000216 s⁻¹. The kon in experiment [1] stood at 3.71e+06 M⁻¹ s⁻¹. For the same substance, the Kd in experiment [2] stood at 0.0583 nM. Also, the % Response BLI of construct in comparison to wildtype (=% Binding to Kappa-ligand) in experiment [3] stood at 12.5%.

In experiment [1], “Adalimumab variant with Gln199Trp light chains (L234A/L235A Fc) (antibody)” displayed a % KD to wildtype of 99.4%, a % koff to wildtype of 96.1%, a % kon to wildtype of 96.1% and a koff of 0.000208 s⁻¹. Also, the kon in experiment [1] came to 3.94e+06 M⁻¹ s⁻¹. Moreover, in experiment [2], the Kd came out at 0.0528 nM. Besides, the % Response BLI of construct in comparison to wildtype (=% Binding to Kappa-ligand) in experiment [3] was determined as 1.66%.

In experiment [2], “Adalimumab with WT light chain (no mutations) and L234A/L235A human IgG Fc variant (antibody)” displayed an equilibrium dissociation constant (Kd) of 0.0531 nM. In addition, the % Response BLI of construct in comparison to wildtype (=% Binding to Kappa-ligand) in experiment [3] is 100%.

The values above are taken from patent US20240018201A1.
